Laboratory results reported in article PMC8213764.
Where “and” joins values, the source holds several entries; their conditions need not be identical. Equal values may be shown once.

Molecular target: Human intelectin-1 (ITLN1) of human ileal lysates, genotype at residue 109 not told for the sentence (human (endogenous in ileum)) (UniProt Q8WWA0)
Experiment: non-reducing SDS-PAGE immunoblot; human ileal lysates (150 mM NaCl, 1% Triton X-100, 0.5% sodium deoxycholate, 0.1% SDS, 50 mM Tris pH 8.0), heated at 95 °C for 30 min without 2-mercaptoethanol, gradient SDS-PAGE (4-20%), immunoblot; oligomers stable under denaturing conditions

stoichiometry N: 3 and 6
Substance: Human intelectin-1 (ITLN1) of human ileal lysates, genotype at residue 109 not told for the sentence (from UniProt Q8WWA0 19-298) (natural protein)
